The record followed here is IntAct's records for PubMed 18020948.

The labels stand for the following.
B1: Integrin alpha-L (Homo sapiens), P20701 (parent)
chain: MKDSCITVMAMALLSGFFFFAPASSYNLDVRGARSFSPPRAGRHFGYRVLQVGNGVIVGAPGEGNSTGSLYQCQSGTGHCLPVTLRGSNYTSKYLGMTLATDPTDGSILACDPGLSRTCDQNTYLSGLCYLFRQNLQGPMLQGRPGFQECIKGNVDLVFLFDGSMSLQPDEFQKILDFMKDVMKKLSNTSYQFAAVQFSTSYKTEFDFSDYVKRKDPDALLKHVKHMLLLTNTFGAINYVATEVFREELGARPDATKVLIIITDGEATDSGNIDAAKDIIRYIIGIGKHFQTKESQETLHKFASKPASEFVKILDTFEKLKDLFTELQKKIYVIEGTSKQDLTSFNMELSSSGISADLSRGHAVVGAVGAKDWAGGFLDLKADLQDDTFIGNEPLTPEVRAGYLGYTVTWLPSRQKTSLLASGAPRYQHMGRVLLFQEPQGGGHWSQVQTIHGTQIGSYFGGELCGVDVDQDGETELLLIGAPLFYGEQRGGRVFIYQRRQLGFEEVSELQGDPGYPLGRFGEAITALTDINGDGLVDVAVGAPLEEQGAVYIFNGRHGGLSPQPSQRIEGTQVLSGIQWFGRSIHGVKDLEGDGLADVAVGAESQMIVLSSRPVVDMVTLMSFSPAEIPVHEVECSYSTSNKMKEGVNITICFQIKSLIPQFQGRLVANLTYTLQLDGHRTRRRGLFPGGRHELRRNIAVTTSMSCTDFSFHFPVCVQDLISPINVSLNFSLWEEEGTPRDQRAQGKDIPPILRPSLHSETWEIPFEKNCGEDKKCEANLRVSFSPARSRALRLTAFASLSVELSLSNLEEDAYWVQLDLHFPPGLSFRKVEMLKPHSQIPVSCEELPEESRLLSRALSCNVSSPIFKAGHSVALQMMFNTLVNSSWGDSVELHANVTCNNEDSDLLEDNSATTIIPILYPINILIQDQEDSTLYVSFTPKGPKIHQVKHMYQVRIQPSIHDHNIPTLEAVVGVPQPPSEGPITHQWSVQMEPPVPCHYEDLERLPDAAEPCLPGALFRCPVVFRQEILVQVIGTLELVGEIEASSMFSLCSSLSISFNSSKHFHLYGSNASLAQVVMKVDVVYEKQMLYLYVLSGIGGLLLLLLIFIVLYKVGFFKRNLKEKMEAGRGVPNGIPAEDSEQLASGQEAGDPGCLKPLHEKDSESGGGKD
partner: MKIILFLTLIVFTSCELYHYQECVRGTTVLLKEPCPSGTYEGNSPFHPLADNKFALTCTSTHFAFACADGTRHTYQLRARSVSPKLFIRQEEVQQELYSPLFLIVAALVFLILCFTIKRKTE

The variants in the test derive from B1. The following applies: with ns7a_sars ns7a.
As for K288C;K293C, the “effect of a mutation on the interaction” value is “increasing interaction strength”.
